Experimental data taken from article PMC5454996.

These molecules were tested against recombinant Der p 1 (mature, enzymatically active cysteine protease) (house dust mite) (UniProt P08176) (assay: not given).
LNAE [tetrapeptide LNAE (first half of the cleavage site LNAE80p–T1NAC)] gave a reduction of the initial Der p 1 activity (Boc-Gln-Ala-Arg-AMC hydrolysis) by tetrapeptide (10 mM) at pH 4 of 80%. With NKSY [tetrapeptide NKSY (first half of the cleavage site NKSY19p–A20pTFE)] the reduction of the initial Der p 1 activity (Boc-Gln-Ala-Arg-AMC hydrolysis) by tetrapeptide (10 mM) at pH 4 was 30%. With KYVQ [tetrapeptide KYVQ (first half of the cleavage site KYVQ40p–S41pNGG)] the reduction of the initial Der p 1 activity (Boc-Gln-Ala-Arg-AMC hydrolysis) by tetrapeptide (10 mM) at pH 4 was 45%. FDLN [tetrapeptide FDLN (first half of the cleavage site FDLN78p–A79pETN)] gave a reduction of the initial Der p 1 activity (Boc-Gln-Ala-Arg-AMC hydrolysis) by tetrapeptide (10 mM) at pH 4 of 75%.

What follows are molecules tested against recombinant Der p 1 (mature, enzymatically active cysteine protease) (house dust mite) (UniProt P08176) (assay: enzyme inhibition kinetics; steady-state velocities of Der p 1 at each propeptide concentration, pH 7, substrate Boc-Gln-Ala-Arg-AMC at 160 µM; KD calculated by Equation (4) because initial and steady-state velocities differed little).
With “Der p 1 propeptide double mutant D51pA/E56pA, full-length (1-80) (domain or fragment)” the Kd was 130 nM.

These molecules were tested against recombinant Der p 1 (mature, enzymatically active cysteine protease) (house dust mite) (UniProt P08176) (assay: enzyme inhibition kinetics; time-dependent inhibition of Der p 1 (5 nM) by propeptide (30–300 nM) at pH 7, fluorogenic substrate Boc-Gln-Ala-Arg-AMC; pre-steady-state kobs against propeptide concentration by linear regression gives KD Global, kon and koff; simple 1/1 stoichiometry assumed).
Molecule “Der p 1 propeptide mutant D51pA, full-length (1-80) (domain or fragment)” has a Kd of 37 nM, a koff of 0.017 s⁻¹ and a kon of 440000 M⁻¹ s⁻¹. For “Der p 1 propeptide mutant E56pA, full-length (1-80) (domain or fragment)”, the Kd was 5 nM, the koff was 0.007 s⁻¹ and the kon was 1.5e+06 M⁻¹ s⁻¹. “Der p 1 propeptide mutant K17pA, full-length (1-80) (domain or fragment)” gave a Kd of 15 nM, a koff of 0.007 s⁻¹ and a kon of 460000 M⁻¹ s⁻¹. With “Der p 1 propeptide mutant Y19pF, full-length (1-80) (domain or fragment)” the Kd was 6 nM, the koff was 0.007 s⁻¹ and the kon was 1.2e+06 M⁻¹ s⁻¹. “Der p 1 propeptide, wild type, full-length (1-80) (domain or fragment)” gave a Kd of 7 nM, a koff of 0.0078 s⁻¹ and a kon of 1.1e+06 M⁻¹ s⁻¹.
